Results published in paper doi:10.1101/2024.12.01.626218.

Biological target: TTF2 1-100 (UniProt Q5NC05)
Experiment: isothermal titration calorimetry
Conditions: reference: unphosphorylated TRAIP 313-329 peptide; sites T325

- binding against the reference: gained
Substance: TRAIP 313-329 (from UniProt Q8VIG6) pT325 TRAIP 313-329 peptide
